Assay results published in US20110091994A1, “Methods for Screening Compounds for Treating and/or Preventing an Hepatitis C Virus Infection” (priority 2008, published 2011).
Where two headings read alike, the source gives them in different places.

Experiments:
[1] = target: T1, HCV ORFs (Gal4-DB fusions) (Hepatitis C virus genotype 1b, UniProt Q9WMX2); format: binding, HCV genotype 1b, isolate con1; settings: human protein as prey
T1 construct: expressed in transfected cells; host or cells: Saccharomyces cerevisiae MAV203 (IMAP1) / AH109 (IMAP2)

[2] = test system: HCV ORFs (Gal4-DB fusions); format: binding, HCV genotype 1b, isolate con1; settings: human protein listed by gene symbol; the value names the HCV protein it interacts with
HCV proteins = target: T2, HCV proteins (Hepatitis C virus genotype 1b, UniProt Q9WMX2); assay: Validation by Y2H pairwise matrices; format: binding;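 note: yeast two-hybrid pairwise tests of interactions first found in Y2H screens of HCV bait proteins against human cDNA libraries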
T2 construct: expressed in transfected cells

[3] = validation of interaction with HCV protein NS3
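Throughout, for IMAP Y2H IMAP1 (number of IST): yeast two-hybrid screens using HCV genotype 1b proteins fused to Gal4-DB as baits against prey cDNA libraries from human spleen and foetal brain, IMAP1 via transformation and IMAP2 via mating.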
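Throughout, for Interaction with viral protein: yeast two-hybrid screens using HCV genotype 1b proteins fused to Gal4-DB as baits against prey cDNA libraries from human spleen and foetal brain, IMAP1 via transformation and IMAP2 via mating.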

Row | Molecule | IMAP Y2H IMAP1 (number of IST) ([1]; HCV protein NS3 as bait) | Interaction with viral protein [2] | Y2H matrices (HCV proteins; [3]) | IMAP Y2H IMAP1 (number of IST) ([1]; HCV protein CORE as bait) | IMAP Y2H IMAP1 (number of IST) ([1]; HCV protein p7 as bait) | Y2H matrices (HCV proteins; interaction with HCV protein p7) | Y2H matrices (HCV proteins; validation of interaction with HCV protein CORE)
1 | DEAF1 (protein, UniProt O75398 1-565, looked up) Deformed epidermal …: MEDSDSAAKQLGLAEAAAVAAAAAVAAAAAAAAGGEAEEPVLSRDEDSEEDADSEAERETPRVTAVAVMAAEPGHMDMGAEALPGPDEAAAAAAFAEVTTVTVANVGAAADNVFTTSVANAASISGHVLSGRTALQIGDSLNTEKATLIVVHTDGSIVETTGLKGPAAPLTPGPQSPPTPLAPGQEKGGTKYNWDPSVYDSELPVRCRNISGTLYKNRLGSGGRGRCIKQGENWYSPTEFEAMAGRASSKDWKRSIRYAGRPLQCLIQDGILNPHAASCTCAACCDDMTLSGPVRLFVPYKRRKKENELPTTPVKKDSPKNITLLPATAATTFTVTPSGQITTSGALTFDRASTVEATAVISESPAQGDVFAGATVQEASVQPPCRASHPEPHYPGYQDSCQIAPFPEAALPTSHPKIVLTSLPALAVPPPTPTKAAPPALVNGLELSEPRSWLYLEEMVNSLLNTAQQLKTLFEQAKHASTYREAATNQAKIHADAERKEQSCVNCGREAMSECTGCHKVNYCSTFCQRKDWKDHQHICGQSAAVTVQADEVHVAESVMEKVTV | 6 | NS3 | + | – | – | – | –
2 | DPF1 (protein, UniProt Q92782 1-387, looked up) Zinc finger protein neuro-d4: MATVIPGPLSLGEDFYREAIEHCRSYNARLCAERSLRLPFLDSQTGVAQNNCYIWMEKTHRGPGLAPGQIYTYPARCWRKKRRLNILEDPRLRPCEYKIDCEAPLKKEGGLPEGPVLEALLCAETGEKKIELKEEETIMDCQKQQLLEFPHDLEVEDLEDDIPRRKNRAKGKAYGIGGLRKRQDTASLEDRDKPYVCDICGKRYKNRPGLSYHYTHTHLAEEEGEENAERHALPFHRKNNHKQFYKELAWVPEAQRKHTAKKAPDGTVIPNGYCDFCLGGSKKTGCPEDLISCADCGRSGHPSCLQFTVNMTAAVRTYRWQCIECKSCSLCGTSENDDQLLFCDDCDRGYHMYCLSPPMAEPPEGSWSCHLCLRHLKEKASAYITLT | 1 | NS3 | + | – | – | – | –
3 | FBLN2 (protein, UniProt P98095 28-1184, looked up) Fibulin-2: APRQDCTGVECPPLENCIEEALEPGACCATCVQQGCACEGYQYYDCLQGGFVRGRVPAGQSYFVDFGSTECSCPPGGGKISCQFMLCPELPPNCIEAVVVADSCPQCGQVGCVHAGHKYAAGHTVHLPPCRACHCPDAGGELICYQLPGCHGNFSDAEEGDPERHYEDPYSYDQEVAEVEAATALGGEVQAGAVQAGAGGPPAALGGGSQPLSTIQAPPWPAVLPRPTAAAALGPPAPVQAKARRVTEDSEEEEEEEEEREEMAVTEQLAAGGHRGLDGLPTTAPAGPSLPIQEERAEAGARAEAGARPEENLILDAQATSRSTGPEGVTHAPSLGKAALVPTQAVPGSPRDPVKPSPHNILSTSLPDAAWIPPTREVPRKPQVLPHSHVEEDTDPNSVHSIPRSSPEGSTKDLIETCCAAGQQWAIDNDECLEIPESGTEDNVCRTAQRHCCVSYLQEKSCMAGVLGAKEGETCGAEDNDSCGISLYKQCCDCCGLGLRVRAEGQSCESNPNLGYPCNHVMLSCCEGEEPLIVPEVRRPPEPAAAPRRVSEAEMAGREALSLGTEAELPNSLPGDDQDECLLLPGELCQHLCINTVGSYHCACFPGFSLQDDGRTCRPEGHPPQPEAPQEPALKSEFSQVASNTIPLPLPQPNTCKDNGPCKQVCSTVGGSAICSCFPGYAIMADGVSCEDINECVTDLHTCSRGEHCVNTLGSFHCYKALTCEPGYALKDGECEDVDECAMGTHTCQPGFLCQNTKGSFYCQARQRCMDGFLQDPEGNCVDINECTSLSEPCRPGFSCINTVGSYTCQRNPLICARGYHASDDGTKCVDVNECETGVHRCGEGQVCHNLPGSYRCDCKAGFQRDAFGRGCIDVNECWASPGRLCQHTCENTLGSYRCSCASGFLLAADGKRCEDVNECEAQRCSQECANIYGSYQCYCRQGYQLAEDGHTCTDIDECAQGAGILCTFRCLNVPGSYQCACPEQGYTMTANGRSCKDVDECALGTHNCSEAETCHNIQGSFRCLRFECPPNYVQVSKTKCERTTCHDFLECQNSPARITHYQLNFQTGLLVPAHIFRIGPAPAFTGDTIALNIIKGNEEGYFGTRRLNAYTGVVYLQRAVLEPRDFALDVEMKLWRQGSVTTFLAKMHIFFTTFAL | 9 | CORE and NS3 | + | 1 | 1 | + | +
